The assay concerns the target T1, BCMA抗原 (antigen in solution, Biacore) (UniProt Q02223 1-54, limits assumed).
T1 construct: also called B细胞成熟抗原; CD269
T1 sequence (looked up): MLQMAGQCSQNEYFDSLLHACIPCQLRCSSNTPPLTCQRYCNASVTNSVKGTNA
In words: Biacore SPR, antibody immobilised on the chip, antigen in the mobile phase. On the technique in general: Surface plasmon resonance follows binding to a sensor surface in real time, without labels.

This is an account of results in patent CN113265001A (HUADAO SHANGHAI BIOMEDICAL CO LTD, dated 2021).

The Kd is the concentration at which binding is half-saturated. A lower Kd goes with tighter binding. For orientation: koff means a measure of how fast the partners let go of each other. A high value points to fast dissociation. Usually kon stands for the rate constant with which the complex forms. A lower kon goes with slow association.

B1: BCMA-12 VHH-mIgG2a Fc 纳米抗体 (Fc fusion)
chain: EVQLVESGGDSVQAGGSLRLSCAVSGYTDSKNLMGWFRQAPGKEREGVAVIYTGGGRPVYADSVKGRFTISQDSAKNTVYLQMNSLKPEDTALYYCAADYLGGAWPFGAYRYWGQGTQVTVSS
notes: also called BCMA VHH B12; BCMA VHH抗体; not shown: mouse IgG2a Fc tag of vector C-4 pCP.Stuffer-mCg2a-FC
With B1, binding was characterised by a dissociation constant (Kd) of 63.4 pM, the koff was determined as 0.000429 s⁻¹ and the kon was determined as 6.77e+06 M⁻¹ s⁻¹.
